Experimental data taken from US20200055896A1, “SUBSTRATES RECOGNIZED BY FIBROBLAST ACTIVATION PROTEIN (FAP) AND METHODS OF USING THE SAME” (GENENTECH, INC., priority 2017, published 2020).
No end group written: not given here.

Biological target: T1, recombinant mouse FAP (Mus musculus, UniProt P97321)
T1 construct: (residues L26-D760 and L26-D761, respectively); octa-His (N); made in house; host or cells: transiently transfected CHO cells (conditioned media)
T1 sequence (P97321 26-761): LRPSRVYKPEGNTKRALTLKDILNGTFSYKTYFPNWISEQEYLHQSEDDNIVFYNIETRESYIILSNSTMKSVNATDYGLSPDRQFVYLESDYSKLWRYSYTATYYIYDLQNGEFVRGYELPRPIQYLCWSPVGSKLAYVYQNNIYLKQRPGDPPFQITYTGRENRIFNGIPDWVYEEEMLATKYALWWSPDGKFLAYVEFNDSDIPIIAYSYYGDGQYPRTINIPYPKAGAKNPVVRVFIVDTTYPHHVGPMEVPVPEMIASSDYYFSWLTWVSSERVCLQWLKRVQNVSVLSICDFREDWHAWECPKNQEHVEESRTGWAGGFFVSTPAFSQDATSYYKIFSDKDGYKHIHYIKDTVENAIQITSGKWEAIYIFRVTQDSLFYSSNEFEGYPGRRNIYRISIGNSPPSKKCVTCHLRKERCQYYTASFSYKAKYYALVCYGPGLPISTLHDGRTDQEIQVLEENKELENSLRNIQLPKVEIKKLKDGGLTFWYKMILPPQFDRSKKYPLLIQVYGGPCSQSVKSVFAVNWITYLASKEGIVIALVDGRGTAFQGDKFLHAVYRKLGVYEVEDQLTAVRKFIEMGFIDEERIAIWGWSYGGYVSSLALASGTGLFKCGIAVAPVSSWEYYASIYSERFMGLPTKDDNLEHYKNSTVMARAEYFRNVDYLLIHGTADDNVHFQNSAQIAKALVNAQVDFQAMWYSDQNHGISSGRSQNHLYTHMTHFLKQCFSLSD
Experiment: FRET-quench assay: probe cleavage by recombinant mouse FAP
Type: biochemical
Settings: 1 nM recombinant mouse FAP; 3 μM peptide
Source text: Human prolyl oligopeptidase (PREP, 4308-SE), DPPIV (1180-SE), DPP9 (5419-SE), and DPPII/DPP7 (3438-SE) proteins were purchased from R&D Systems. Human DPP8 (BML-SE527) protein was purchased from Enzo Life Sciences. N-terminal octa-His-tagged human and mouse FAP proteins containing the extracellular domain (residues L26-D760 and L26-D761, respectively) were purified from the conditioned media of transiently-transfected CHO cells, by immobilized metal affinity chromatography (IMAC), followed by size exclusion chromatography (SEC).
Peptides of the region flanking the C-terminal human FGF21 cleavage site (VGPSQG) or a variant with D-alanine at P2 (VaPSQG) were synthesized (Anaspec, Inc.), containing an amine-terminal donor (HyLite Fluor 488 or Cy5.5 for aP NIRF) and a dark quencher-acceptor (QXL 520 or QSY21 for aP NIRF) conjugated to a supplementary C-terminal lysine. ANPFAP (Bioconjugate Chem 23:1704-11) and aP NIRF were synthesized by CPC Scientific (Sunnyvale, Calif.). Assays were conducted at 37° C. in 50 mM HEPES (pH 7.2), 150 mM NaCl, 1 mM EDTA, 0.1 mg/ml BSA. The excitation/emission wavelengths of cleaved peptide are 490/520 nm or 675/695 nm for ANPFAP and aP NIRF. Fluorescence was monitored on a Tecan M1000 Pro plate reader in kinetic mode. […]

cleavage by recombinant mouse FAP: cleaved
Substance: GP probe: human FGF21 cleavage-site peptide VGPSQG with amine-terminal HyLite Fluor 488 donor and QXL 520 quencher on supplementary C-terminal lysine ({HyLite Fluor 488}-VGPSQGK(QXL 520))
